Five molecules from patent US20180170984, “SITE-SPECIFIC DNA BASE EDITING USING MODIFIED APOBEC ENZYMES” (Regents of the University of Minnesota, published 2018) can be followed below.

Sequence of APOBEC3A D131A (P31941 whole entry D131A): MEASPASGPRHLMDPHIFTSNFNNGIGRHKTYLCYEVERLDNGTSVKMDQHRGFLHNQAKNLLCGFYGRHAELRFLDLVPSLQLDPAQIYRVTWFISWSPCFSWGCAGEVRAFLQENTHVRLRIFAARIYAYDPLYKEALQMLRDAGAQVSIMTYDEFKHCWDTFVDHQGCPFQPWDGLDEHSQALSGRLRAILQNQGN
Sequence of APOBEC3A D131E (P31941 whole entry D131E): as the sequence (P31941 whole entry D131A) above, with A131E counted along it

In the first data set the target is APOBEC3A E72A (1-195) (Homo sapiens, UniProt P31941 SEQ:1-195, E72A). In words: structure; crystal structure 3.15 Å, PDB 5SWW, U-shaped ssDNA, Zn.
Sequence of APOBEC3A E72A (1-195) (P31941 1-195 E72A): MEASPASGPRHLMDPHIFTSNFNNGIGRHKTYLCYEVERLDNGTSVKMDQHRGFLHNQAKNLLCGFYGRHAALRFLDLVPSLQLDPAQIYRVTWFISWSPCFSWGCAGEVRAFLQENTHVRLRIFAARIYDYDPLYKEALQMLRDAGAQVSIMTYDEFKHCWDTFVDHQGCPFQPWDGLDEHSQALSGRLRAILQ
Details: not given
The procedure: Purified A3A and A3Bctd* were mixed with ˜1.5 molar excess ssDNA (see below) at a final protein concentration of 25-30 mg ml⁻¹. The A3A-ssDNA complex crystal was obtained in a sitting drop formed by mixing the complex solution with an equal volume of 0.2 M NaF, 20% (w/v) PEG3350, 0.1 M Bis-Tris propane (pH 6.5), equilibrated via vapor diffusion against the same reservoir solution. The A3Bctd*-ssDNA crystal was obtained similarly, using a reservoir solution consisting of 0.45 M NaI and 20% (w/v) PEG3350. The crystals were mounted directly from the Intelli-Plate 96 (Art Robbins Instruments) and flash cooled in liquid nitrogen using glycerol or ethylene glycol as cryo-protectant. X-ray diffraction data were collected at the Advanced Photon Source Northeastern Collaborative Access Team beamline 24-ID-C using the selenium K-absorption edge wavelength, and the data were processed with XDS (Kabsch, Acta Crystallogr D Biol Crystallogr 66:125-132, 2010). The A3A-DNA complex crystal is in the space group of P2221. […] Using monomeric A3A (pdb 4XXO; Bohn et al., Structure 23:903-911, 2015) as a search model, the molecular replacement calculations by PHASER (McCoy et al., J Appl Crystallogr 40:658-674, 2007) located four copies of A3A in the asymmetric unit. […]
AAAAAAATCGGGAAA (ssDNA) [A3A crystallization ligand]: the binding result is reported as “binds”.

The next data set addresses APOBEC3A D131E (Homo sapiens, UniProt P31941 SEQ:1-199, D131E). In words: deamination, 50 nM enzyme, 1 h 37 C. The following applies: tags: myc-His, 293T; label: 3'-fluorescein. From the text: (§1) FIGS. 10A-10C provide corroborating biochemical data for human A3A. FIGS. 10A and 10B show DNA cytosine deamination by human A3A (WT, wild-type) and the indicated mutant derivatives (S, substrate; P, product). The corresponding anti-MYC (A3A) and anti-TUBULIN immunoblots indicated similar levels of A3A and soluble extract in each experiment relative to controls (A3A has two bands due to alternative translation initiation from Met1 or Met13). Reactions in FIG. 10A interrogated active site mutants using a 43-nucleotide 5′-TC-containing ssDNA substrate, and reactions in FIG. 10B additionally interrogated the identity of the −1 position (A, C, G, or T) relative to the target cytosine. The results are representative of two independent experiments. FIG. 10C is a series of graphs quantifying product accumulation in dose response experiments for A3A and the indicated D131 derivatives using the same ssDNA substrates as FIG. 10B.
(§2) Recombinant A3A-myc-His and mutant derivatives were expressed in 293T cells and purified as described by nickel affinity chromatography (Stenglein et al., supra; Li et al., supra; and Carpenter et al. 2012, supra). Activity assays were conducted as outlined above, except reactions were initiated by adding 5 μl of enzyme (2-fold dilutions starting at 200 nM) to 5 μl of 50 mM NaCl, 10 mM HEPES buffer (pH 7.4) containing 1.6 μM fluorescently labeled ssDNA (sequences above). Reactions progressed 1 hour at 37° C. and processed and quantified as described above.
ATTATTATTATTCAAATGGATTTATTTATTTATTTATTTATTT (ssDNA) [-1 TCA substrate] came in with an activity of 27.3 % product.

As to ATTATTATTATACAAATGGATTTATTTATTTATTTATTTATTT (ssDNA) [-1 ACA substrate], the activity was determined as 36.6 % product.

Molecule ATTATTATTATGCAAATGGATTTATTTATTTATTTATTTATTT (ssDNA) [-1 GCA substrate] displayed an activity of 30.8 % product.

Another data set has as its target APOBEC3A D131A (Homo sapiens, UniProt P31941 SEQ:1-199, D131A). Put plainly: deamination, 50 nM enzyme, 1 h 37 C. The following applies: tags: myc-His, 293T; label: 3'-fluorescein.
Text: as §1, §2
For the molecule ATTATTATTATTCAAATGGATTTATTTATTTATTTATTTATTT (ssDNA) [-1 TCA substrate], the activity came to 3.7 % product.

ATTATTATTATACAAATGGATTTATTTATTTATTTATTTATTT (ssDNA) [-1 ACA substrate] displayed an activity of 8.7 % product.

In turn, ATTATTATTATGCAAATGGATTTATTTATTTATTTATTTATTT (ssDNA) [-1 GCA substrate] returned an activity of 4 % product.

In turn, ATTATTATTATCCAAATGGATTTATTTATTTATTTATTTATTT (ssDNA) [-1 CCA substrate] yielded an activity of 10.1 % product.

The target in a further data set is APOBEC3A D131T (Homo sapiens, UniProt P31941 SEQ:1-199, D131T). Put plainly: deamination, 50 nM enzyme, 1 h 37 C. To be noted: tags: myc-His, 293T; label: 3'-fluorescein.
Sequence of APOBEC3A D131T (P31941 whole entry D131T): as the sequence (P31941 whole entry D131A) above, with A131T counted along it
Text: as §1, §2
The molecule ATTATTATTATTCAAATGGATTTATTTATTTATTTATTTATTT (ssDNA) [-1 TCA substrate] gave an activity of 96.6 % product.

With ATTATTATTATACAAATGGATTTATTTATTTATTTATTTATTT (ssDNA) [-1 ACA substrate], the activity was determined as 16.6 % product.

As for ATTATTATTATGCAAATGGATTTATTTATTTATTTATTTATTT (ssDNA) [-1 GCA substrate], the activity amounted to 14.2 % product.

For the molecule ATTATTATTATCCAAATGGATTTATTTATTTATTTATTTATTT (ssDNA) [-1 CCA substrate], the activity came out at 67.5 % product.

The target of another data set is APOBEC3A wild-type (Homo sapiens, UniProt P31941 SEQ:1-199). Put plainly: deamination, 50 nM enzyme, 1 h 37 C. To be noted: tags: myc-His, 293T; label: 3'-fluorescein.
Sequence of APOBEC3A wild-type (P31941 whole entry): as the sequence (P31941 whole entry D131A) above, with A131D counted along it
Text: as §1, §2
Consider ATTATTATTATTCAAATGGATTTATTTATTTATTTATTTATTT (ssDNA) [-1 TCA substrate], for which the activity worked out at 98.3 % product.

The molecule ATTATTATTATACAAATGGATTTATTTATTTATTTATTTATTT (ssDNA) [-1 ACA substrate] registered an activity of 7.6 % product.

In turn, ATTATTATTATGCAAATGGATTTATTTATTTATTTATTTATTT (ssDNA) [-1 GCA substrate] showed an activity of 13 % product.

Molecule ATTATTATTATCCAAATGGATTTATTTATTTATTTATTTATTT (ssDNA) [-1 CCA substrate] displayed an activity of 42.9 % product.
